Reference: PMC4222680, “A Germline Polymorphism of Thymine DNA Glycosylase Induces Genomic Instability and Cellular Transformation”

Columns and labels:
[1] = biological target: TDG WT (human, UniProt Q13569 1-410); assay: EMSA; 20 mM HEPES pH 7.3, 1 mM EDTA, 10 mM (NH4)2SO4, 1 mM DTT, 0.2% Tween-20, 30 mM KCl; 2 nM DNA, 30 min at room temperature; 6% native PAGE at 4 C; settings: protein: recombinant; tags: N-terminal 6xHis (pET28a); label: 5'-32P on the template oligonucleotide; blunt
[2] = biological target: TDG G199S (human (rs4135113 variant), UniProt Q13569 1-410, G199S); assay: as above; settings: protein: recombinant; tags: N-terminal 6xHis (pET28a); label: 5'-32P on the template oligonucleotide; blunt
TDG G199S, sequence (Q13569 whole entry G199S): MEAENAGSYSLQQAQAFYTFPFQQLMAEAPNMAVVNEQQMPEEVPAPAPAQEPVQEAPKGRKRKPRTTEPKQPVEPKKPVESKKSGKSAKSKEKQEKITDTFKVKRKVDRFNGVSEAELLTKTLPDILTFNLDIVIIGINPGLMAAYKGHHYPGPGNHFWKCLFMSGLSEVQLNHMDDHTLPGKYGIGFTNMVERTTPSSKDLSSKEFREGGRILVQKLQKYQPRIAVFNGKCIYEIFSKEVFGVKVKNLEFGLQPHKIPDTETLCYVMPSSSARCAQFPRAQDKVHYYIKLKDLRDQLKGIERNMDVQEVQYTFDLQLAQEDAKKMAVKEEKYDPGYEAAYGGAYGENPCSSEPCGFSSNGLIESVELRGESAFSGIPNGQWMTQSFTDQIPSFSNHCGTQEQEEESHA

TDG WT, sequence (Q13569 whole entry): as the sequence (Q13569 whole entry G199S) above, with S199G counted along it

B1: 28-mer 5-FU:A (dsDNA)
DNA 1: CAGCTCTGTACATGAGCAGTGGTGACAC
DNA 2: GTGTCACCACTGCTCAUGTACAGAGCTG
modifications: 5-fluorouracil (X, written U) at position 17 of strand 2, opposite A12 of strand 1
Kd [1]: 77 ± 13 nM | Kd [2]: 41 ± 5 nM
